A short description of the test: Compaction assay to assess liquefaction of human CF sputum. As to conditions: 0.58 mM in diluent, n=6 per treatment; FIG. 2. The method, then: Compaction assay to assess liquefaction of human CF sputum. For all manipulations, CF sputum was handled under a microbiologic hood. rhTrx, r(Cys)hTrx or diluent alone (25 microliters), in relevant concentrations, was added to CF sputum (275 microliters) in a 1.5 ml Eppendorf conical tube and mixed by very brief vortexing. After incubation at 37 degrees C. for 30 min, samples were again briefly mixed and loaded into hematocrit tubes and sealed at both ends. After a 5 minute centrifugation in a hematocrit centrifuge, the percent solids (gel) and percent liquid was determined by direct linear measurement and expressed as percent liquid as follows: 100×liquid/(liquid+solids). For each condition, sputum from at least five different CF patients was measured in triplicate.
Comparison of efficacy with standard of care mucolytic agent (rhDNase). For these studies, relevant concentrations of rhTrx, r(Cys)hTrx and rhDNase were compared by incubation as described above. After 30 minutes, samples were assessed for changes in liquefaction of sputum (compaction assay) and alteration of viscoelasticity. In addition, synergy studies were performed. […] For each condition, sputum from at least five different CF patients were measured in triplicate. […]
Human CF sputum collection. Sputum was obtained from adult and pediatric patients with CF as determined by a health care provider. […]

One molecule from patent publication US12390511B2, “Product and process for mucus viscosity normalization” (ORPRO THERAPEUTICS, INC., priority 2013, dated 2025) can be followed below.

B1: rhDNase: standard of care CF mucolytic Pulmozyme (rhDNase I; dornase alfa) (protein, UniProt P24855 23-282, looked up)
Deoxyribonuclease-1: LKIAAFNIQTFGETKMSNATLVSYIVQILSRYDIALVQEVRDSHLTAVGKLLDNLNQDAPDTYHYVVSEPLGRNSYKERYLFVYRPDQVSAVDSYYYDDGCEPCGNDTFNREPAIVRFFSRFTEVREFAIVPLHAAPGDAVAEIDALYDVYLDVQEKWGLEDVMLMGDFNAGCSYVRPSQWSSIRLWTSPTFQWLIPDSADTTATPTHCAYDRIVVAGMLLRGAVVPDSALPFNFQAAYGLSDQLAQAISDHYPVEVMLK
Regarding B1, the “liquefaction of patient sputum / mucus-normalizing potency at equimolar concentrations” value was “more potent than equimolar amounts of NAC”.
